The data set has as its target Factor X, P00742.

Chain of Factor X, P00742 (P00742 whole entry, looked up): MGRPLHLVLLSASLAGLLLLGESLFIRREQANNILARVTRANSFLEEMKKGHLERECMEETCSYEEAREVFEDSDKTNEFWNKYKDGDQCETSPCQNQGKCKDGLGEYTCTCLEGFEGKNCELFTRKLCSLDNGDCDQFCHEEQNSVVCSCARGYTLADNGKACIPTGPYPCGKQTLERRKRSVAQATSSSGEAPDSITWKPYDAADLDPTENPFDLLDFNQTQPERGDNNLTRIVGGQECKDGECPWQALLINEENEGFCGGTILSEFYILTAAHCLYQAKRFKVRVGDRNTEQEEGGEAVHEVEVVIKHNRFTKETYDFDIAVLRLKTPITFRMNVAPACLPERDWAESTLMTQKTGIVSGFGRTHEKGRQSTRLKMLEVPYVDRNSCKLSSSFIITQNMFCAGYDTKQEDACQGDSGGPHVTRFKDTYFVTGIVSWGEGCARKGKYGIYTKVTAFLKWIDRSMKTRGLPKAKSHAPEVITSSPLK

B1: FIXa Y155F/K247N/N249S/R338E/T343R/R403E (protein)
chain 1: not shown
chain 2: not shown
One may read the kcat/KM as the second-order rate constant that governs catalysis at low substrate concentration. Turning to B1, the “% of WT kcat/KM” value came out at 1269% and the specificity constant (kcat/KM) worked out at 5.9e+08 M⁻¹ s⁻¹.

B2: FIXa K247N/N249S/R318Y/T343R/R403E (protein)
chain 1: not shown
chain 2: not shown
Consider B2, for which the “% of WT kcat/KM” value came out at 84% and the kcat/KM came out at 3.9e+07 M⁻¹ s⁻¹.

B3: FIXa Y155F/K247N/N249S/R318Y/T343R/R403E (protein)
chain 1: not shown
chain 2: not shown
B3: the “% of WT kcat/KM” value amounted to 276% and the kcat/KM was found to be 1.3e+08 M⁻¹ s⁻¹.

B4: FIXa K247N/N249S/R318Y/T343R/E410N (protein)
chain 1: not shown
chain 2: not shown
Consider B4, for which the “% of WT kcat/KM” value is listed as 439% and the kcat/KM was found to be 2e+08 M⁻¹ s⁻¹.

B5: FIXa Y155F/K247N/N249S/R318Y/T343R/E410N (protein)
chain 1: not shown
chain 2: not shown
For the protein B5, the “% of WT kcat/KM” value is 668% and the kcat/KM worked out at 3.1e+08 M⁻¹ s⁻¹.

These data come from patent US11491212.
